Measured values: article PMC5979025

T1: C-reactive protein (pentameric, biotin-labeled) (Homo sapiens), P02741
T1 chain: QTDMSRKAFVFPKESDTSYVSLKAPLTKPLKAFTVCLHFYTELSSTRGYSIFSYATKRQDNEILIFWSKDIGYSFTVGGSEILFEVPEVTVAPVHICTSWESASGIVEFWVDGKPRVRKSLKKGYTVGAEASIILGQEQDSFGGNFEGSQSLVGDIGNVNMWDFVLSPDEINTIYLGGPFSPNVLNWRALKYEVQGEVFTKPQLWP


Experiments:
[1] = molecular target: C-reactive protein (pCRP) (Homo sapiens) (UniProt P02741); conditions: cited from earlier work
[2] = molecular target: T1, C-reactive protein (pentameric, …); assay: ELISA; conditions: pCRP immobilized on hydrophobic surface, biotin-labeled solution pCRP, calcium required; remark: other sources report otherwise

Row | Kd [2] [µM] | Molecule | Kd [1] [µM]
1 | – | C-reactive protein (pCRP) (from UniProt P02741) | 20
2 | 0.0015 | C-reactive protein (surface-immobilized intermediate, CRPi), P02741 (protein) QTDMSRKAFVFPKESDTSYVSLKAPLTKPLKAFTVCLHFYTELSSTRGYSIFSYATKRQDNEILIFWSKDIGYSFTVGGSEILFEVPEVTVAPVHICTSWESASGIVEFWVDGKPRVRKSLKKGYTVGAEASIILGQEQDSFGGNFEGSQSLVGDIGNVNMWDFVLSPDEINTIYLGGPFSPNVLNWRALKYEVQGEVFTKPQLWP | –
